Changes are numbered by the printed parent chain.
B1: hu7A4.v5 (antibody, V domains shown)
VH: EVQLVQSGAEVKKPGASVKVSCKASGYTFTDYAMHWVRQAPGQGLEWMGGISTYFGRTNYNQKFKGRVTMTRDTSISTAYMELSRLRSDDTAVYYCARGLSGNYVMDYWGQGTTVTVSS
VL: DIVMTQSPDSLAVSLGERATINCRASESVDSYGNSFMHWYQQKPGQPPKLLIYRASNLESGIPDRFSGSGSGTDFTLTISSLQAEDVAVYYCQQSNEGPPTFGQGTKLEIK
notes: IgG
B2: 5878 (antibody, V domains shown)
VH: EVQLLESGGGLVQPGGSLRLSCAASGFTFSSYAMSWVRQAPGKGLEWVSAISGSGISTPYADSVKGRFTISRDNSKNTLYLQMNSLRAEDTAVYYCAKGAGHGSYVKGWFDPWGQGTLVTVSS
VL: EIVLTQSPATLSLSPGERATLSCRASQSVSSYLAWYQQKPGQAPRLLIYDASNRATGIPARFSGSGSGTDFTLTISSLEPEDFAVYYCQQSVNFPFTFGGGTKVEIK
notes: anti-BACE1 IgG
B3: 5881 (antibody, V domains shown)
VH: B2 VH with S31K
VL: B2 VL
notes: anti-BACE1 IgG
B4: 5880 (antibody, V domains shown)
VH: B2 VH with S30G, S35T
VL: B2 VL
notes: anti-BACE1 IgG
B5: 5536 (antibody, V domains shown)
VH: QVQLVQSGAEVKKPGSSVKVSCKASGGTFSSYAISWVRQAPGQGLEWMGSIIPIFGTANYAQKFQGRVTITADESTSTAYMELSSLRSEDTAVYYCARSGGTKYGMLDVWGQGTMVTVSS
VL: EIVMTQSPATLSVSPGERATLSCRASQSVGSNLAWYQQKPGQAPRLLIYGASTRATGIPARFSGSGSGTEFTLTISSLQSEDFAVYYCQQSYLWPPRTFGGGTKVEIK
notes: anti-BACE1 IgG
B6: 5747 (antibody, V domains shown)
VH: QLQLQESGPGLVKPSETLSLTCTVSGGSISSSSYYWGWIRQPPGKGLEWIGNIYYSGSTYYNPSLKSRVTISVDTSKNQFSLKLSSVTAADTAVYYCARLGHGYSYFDLWGRGTLVTVSS
VL: B5 VL with M4L, V13L, G30S, N32Y, G50D, T53N, E70D, Q79E, S80P, S91V
notes: anti-BACE1 IgG
B7: 5874 (antibody, V domains shown)
VH: EVQLLESGGGLVQPGGSLRLSCAASGFTFGSYAMSWVRQAPGKGLEWVSATSGSGGSTYYADSVKGRFTISRDNSKNTLYLQMDSLRAEDTAVYYCAKGGSQWLYAPGSWFDPWGQGTLVTVSS
VL: B2 VL with Q89V, S91R, V92S, F96W
notes: anti-BACE1 IgG
B8: 5539 (antibody, V domains shown)
VH: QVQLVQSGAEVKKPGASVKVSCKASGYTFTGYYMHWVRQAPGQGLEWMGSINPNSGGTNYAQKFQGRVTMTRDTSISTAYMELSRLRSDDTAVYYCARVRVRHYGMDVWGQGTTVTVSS
VL: DIQMTQSPSSLSASVGDRVTITCRASQSISSYLNWYQQKPGKAPKLLIYAASSLQSGVPSRFSGSGSGTDFTLTISSLQPEDFATYYCQQPLSHPRTFGGGTKVEIK
notes: anti-BACE1 IgG
B9: 5583 (antibody, V domains shown)
VH: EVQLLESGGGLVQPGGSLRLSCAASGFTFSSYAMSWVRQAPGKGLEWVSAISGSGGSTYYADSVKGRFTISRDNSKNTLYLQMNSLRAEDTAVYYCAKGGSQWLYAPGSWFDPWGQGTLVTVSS
VL: B2 VL with Q89V, S91R, V92S, F96W
notes: anti-BACE1 IgG
B10: 5532 (antibody, V domains shown)
VH: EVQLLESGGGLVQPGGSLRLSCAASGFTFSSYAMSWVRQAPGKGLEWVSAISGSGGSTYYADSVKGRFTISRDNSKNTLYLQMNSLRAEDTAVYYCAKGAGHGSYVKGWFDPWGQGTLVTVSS
VL: B2 VL with V92S
notes: anti-BACE1 IgG
B11: 5592 (antibody, V domains shown)
VH: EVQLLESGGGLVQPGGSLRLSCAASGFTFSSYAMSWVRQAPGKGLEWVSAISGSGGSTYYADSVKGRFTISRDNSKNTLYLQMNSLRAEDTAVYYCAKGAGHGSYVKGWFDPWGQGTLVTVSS
VL: B2 VL
notes: anti-BACE1 IgG
B12: 5932 (antibody, V domains shown)
VH: B6 VH with S31R, S32G, N52M, Y60W, L100V, Y104I
VL: EIVLTQSPATLSLSPGERATLSCRASQSVSSYLAWYQQKPGQAPRLLIYDASKRATGIPARFSGSGSGTDFTLTISSLEPEDFAVYYCQQVYTWPPRTFGGGTKVEIK
notes: anti-BACE1 IgG
B13: 5984 (antibody, V domains shown)
VH: B6 VH with S67G, S105N
VL: B12 VL with Y36F, K53N, T93V
notes: anti-BACE1 IgG
B14: 5933 (antibody, V domains shown)
VH: B6 VH with S31R, S32G, N52M, Y60W, L100V, Y104V
VL: B12 VL with D50G
notes: anti-BACE1 IgG
B15: 5982 (antibody, V domains shown)
VH: B6 VH
VL: B12 VL with Y36F, K53N, T93V
notes: anti-BACE1 IgG
B16: 5986 (antibody, V domains shown)
VH: B6 VH with N52Q, Y60F
VL: B12 VL with Y36F, K53N, T93V
notes: anti-BACE1 IgG
B17: 5985 (antibody, V domains shown)
VH: B6 VH with S105N
VL: B12 VL with Y36F, K53N, T93V
notes: anti-BACE1 IgG
B18: 5931 (antibody, V domains shown)
VH: B6 VH with S31W, G37S, N52S, Y55R, S58R, S67G, L100V, Y104I, S105N
VL: B12 VL
notes: anti-BACE1 IgG

What follows are binders tested against T1, human TfR extracellular domain with N-terminal His tag (human, UniProt P02786 89-760) (assay: SPR, IgG;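 further: His-tagged TfR captured via immobilized anti-His antibody on a CM5 chip, antibody injected in 3-fold dilution series by single cycle kinetics, 1:1 Langmuir or steady-state fit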).
T1 construct: Biotinylated in some assays; also called huTfR; HuTfR
T1 sequence (P02786 89-760 G142S): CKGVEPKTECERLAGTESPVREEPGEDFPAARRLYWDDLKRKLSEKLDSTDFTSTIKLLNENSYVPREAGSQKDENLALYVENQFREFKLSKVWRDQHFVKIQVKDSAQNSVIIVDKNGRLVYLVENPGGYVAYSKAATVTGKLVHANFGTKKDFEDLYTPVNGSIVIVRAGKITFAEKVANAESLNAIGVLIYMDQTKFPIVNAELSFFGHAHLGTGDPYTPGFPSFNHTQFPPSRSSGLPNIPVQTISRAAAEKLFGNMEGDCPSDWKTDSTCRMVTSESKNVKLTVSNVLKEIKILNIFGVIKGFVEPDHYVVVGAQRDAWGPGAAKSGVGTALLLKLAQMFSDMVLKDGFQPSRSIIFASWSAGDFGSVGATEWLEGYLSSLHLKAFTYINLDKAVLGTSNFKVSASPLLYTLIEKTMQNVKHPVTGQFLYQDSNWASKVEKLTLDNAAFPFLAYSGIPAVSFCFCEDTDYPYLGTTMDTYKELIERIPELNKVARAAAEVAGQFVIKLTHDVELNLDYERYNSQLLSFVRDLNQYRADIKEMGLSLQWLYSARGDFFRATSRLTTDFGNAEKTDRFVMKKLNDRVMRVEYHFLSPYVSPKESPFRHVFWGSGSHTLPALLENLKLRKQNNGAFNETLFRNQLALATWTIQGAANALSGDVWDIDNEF

Kd	Binder
0.364 nM	B1

What follows are binders tested against T2, human BACE1 ECD (assay: Octet, pH 5.0).
T2 construct: analyte of the Octet assay (200 nM) and enzyme of the first short substrate assay; also called human BACE1 extracellular domain
T2 sequence (single chain, as listed by the source limits assumed): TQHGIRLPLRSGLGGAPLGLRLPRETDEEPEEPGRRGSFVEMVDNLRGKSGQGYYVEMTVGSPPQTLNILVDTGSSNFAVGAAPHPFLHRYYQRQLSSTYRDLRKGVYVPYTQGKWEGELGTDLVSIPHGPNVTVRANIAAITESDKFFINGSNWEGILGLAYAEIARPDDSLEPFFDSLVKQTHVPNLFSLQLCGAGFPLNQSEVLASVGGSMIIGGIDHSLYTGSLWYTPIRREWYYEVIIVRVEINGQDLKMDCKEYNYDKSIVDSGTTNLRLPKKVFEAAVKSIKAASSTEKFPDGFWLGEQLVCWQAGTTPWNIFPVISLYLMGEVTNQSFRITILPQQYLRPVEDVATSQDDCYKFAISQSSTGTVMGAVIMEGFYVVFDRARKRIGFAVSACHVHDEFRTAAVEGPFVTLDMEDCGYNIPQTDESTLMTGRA

Kd	Binder
11 nM	B2
11 nM	B3
4.5 nM	B4
17 nM	B5
3 nM	B6

These binders were tested against T3, murine BACE1 ECD (assay: Octet, pH 5.0).
T3 construct: analyte of the Octet assay (200 nM) and enzyme of the first short substrate assay
T3 sequence (single chain, as listed by the source limits assumed): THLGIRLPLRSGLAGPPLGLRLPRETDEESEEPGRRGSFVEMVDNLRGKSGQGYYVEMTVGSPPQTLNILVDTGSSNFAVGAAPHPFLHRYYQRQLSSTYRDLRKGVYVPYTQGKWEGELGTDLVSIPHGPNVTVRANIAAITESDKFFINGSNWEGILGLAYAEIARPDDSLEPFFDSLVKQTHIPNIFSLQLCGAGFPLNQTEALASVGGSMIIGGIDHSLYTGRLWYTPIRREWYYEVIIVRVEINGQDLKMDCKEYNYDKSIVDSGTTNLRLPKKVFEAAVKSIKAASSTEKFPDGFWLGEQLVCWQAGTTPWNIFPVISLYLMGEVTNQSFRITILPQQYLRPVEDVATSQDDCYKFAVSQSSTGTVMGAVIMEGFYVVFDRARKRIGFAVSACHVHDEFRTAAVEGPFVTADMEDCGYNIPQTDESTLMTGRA

Kd	Binder
14 nM	B2
15 nM	B3
200 nM	B7
6.1 nM	B4
6.8 nM	B5
3.1 nM	B6

What follows are binders tested against T2, human BACE1 ECD (assay: Octet, pH 7.5;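 further: antibodies captured on anti-human capture biosensor tips, dissociation followed in PBS with BSA buffer, kinetics fitted with a one-to-one binding model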).

Kd	Binder
79 nM	B8
2.5 nM	B2
78 nM	B9
2.6 nM	B3
76 nM	B10
33 nM	B7
1 nM	B4
59 nM	B11
15 nM	B5
3.3 nM	B6

The binders below were run against T3, murine BACE1 ECD (assay: Octet, pH 7.5;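 further: antibodies captured on anti-human capture biosensor tips, dissociation followed in PBS with BSA buffer, kinetics fitted with a one-to-one binding model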).

Kd	Binder
110 nM	B8
2.7 nM	B2
51 nM	B9
2.4 nM	B3
48 nM	B10
22 nM	B7
1.2 nM	B4
38 nM	B11
22 nM	B5
2.2 nM	B6

What follows are binders tested against T4, human BACE1 (R&D Systems) (human, UniProt P56817) (assay: SPR (Biacore)).
T4 construct: recombinant, commercial (R&D Systems)
T4 sequence (P56817 22-457 limits assumed): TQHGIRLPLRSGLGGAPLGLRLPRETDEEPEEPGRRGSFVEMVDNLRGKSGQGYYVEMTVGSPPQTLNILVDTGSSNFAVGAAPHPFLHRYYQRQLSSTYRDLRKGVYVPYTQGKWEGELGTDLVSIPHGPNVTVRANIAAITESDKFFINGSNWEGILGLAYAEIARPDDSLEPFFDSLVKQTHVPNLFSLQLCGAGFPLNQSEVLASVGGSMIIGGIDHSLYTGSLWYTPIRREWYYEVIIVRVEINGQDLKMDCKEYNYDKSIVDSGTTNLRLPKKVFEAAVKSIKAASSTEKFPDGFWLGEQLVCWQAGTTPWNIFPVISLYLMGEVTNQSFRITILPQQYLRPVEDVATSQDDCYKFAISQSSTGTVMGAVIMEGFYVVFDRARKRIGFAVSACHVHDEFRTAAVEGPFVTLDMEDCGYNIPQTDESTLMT

Kd	Binder
30.5 nM	B8
36 nM	B2
81.8 nM	B9
7.92 nM	B3
130 nM	B10
1.3 nM	B7
65.5 nM	B4
105 nM	B11

Biological target: T2, human BACE1 ECD
Experiment: Octet, pH 5.0
Remark: another data set of the same source

Kd	Binder
< 0.23 nM	B12
0.34 nM	B13
< 0.2 nM	B14
2.3 nM	B15
< 0.24 nM	B16
0.68 nM	B17
< 0.22 nM	B18

Biological target: T3, murine BACE1 ECD
Experiment: Octet, pH 5.0
Remark: another data set of the same source

Kd	Binder
< 0.3 nM	B12
0.37 nM	B13
< 0.24 nM	B14
2.3 nM	B15
< 0.27 nM	B16
0.81 nM	B17
< 0.28 nM	B18

Biological target: T2, human BACE1 ECD
Experiment: Octet, pH 7.5;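 further: antibodies captured on anti-human capture biosensor tips, dissociation followed in PBS with BSA buffer, kinetics fitted with a one-to-one binding model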
Remark: another data set of the same source

Kd	Binder
0.31 nM	B12
0.43 nM	B13
0.32 nM	B14
2.9 nM	B15
0.78 nM	B16
0.87 nM	B17
< 0.22 nM	B18

Biological target: T3, murine BACE1 ECD
Experiment: Octet, pH 7.5;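 further: antibodies captured on anti-human capture biosensor tips, dissociation followed in PBS with BSA buffer, kinetics fitted with a one-to-one binding model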
Remark: another data set of the same source

Kd	Binder
< 0.3 nM	B12
0.36 nM	B13
< 0.24 nM	B14
2 nM	B15
0.54 nM	B16
0.65 nM	B17
< 0.23 nM	B18

What follows are binders tested against T2, human BACE1 ECD (assay: cell-based or functional assay).

% inhibition of BACE1 activity, short FRET substrate	Binder
42%	B8
99%	B2
44%	B9
97%	B3
56%	B10
37%	B7
99%	B4
63%	B11
32%	B5

Each binder was assayed against T3, murine BACE1 ECD (assay: cell-based or functional assay).

% inhibition of BACE1 activity, short FRET substrate	Binder
23%	B8
98%	B2
34%	B9
98%	B3
50%	B10
33%	B7
97%	B4
60%	B11
30%	B5

These binders were tested against BACE1 (HTRF long substrate and FRET short substrate assays of Example 9D) (assay: cell-based or functional assay).

EC50, HTRF long substrate	EC50, FRET short substrate	Binder
0.694 nM	–	B8
164 nM	24.3 nM	B2
172 nM	9.72 nM	B9
33.7 nM	5.93 nM	B3
104 nM	52.3 nM	B10
3.97 nM	0.798 nM	B7
171 nM	7.88 nM	B4
189 nM	95.9 nM	B11
0.578 nM	–	B5

Each binder was assayed against T5, BACE1 in primary mouse cortical neurons (mouse, UniProt P56818 46-501) (assay: cell-based or functional assay).
T5 sequence (P56818 46-501): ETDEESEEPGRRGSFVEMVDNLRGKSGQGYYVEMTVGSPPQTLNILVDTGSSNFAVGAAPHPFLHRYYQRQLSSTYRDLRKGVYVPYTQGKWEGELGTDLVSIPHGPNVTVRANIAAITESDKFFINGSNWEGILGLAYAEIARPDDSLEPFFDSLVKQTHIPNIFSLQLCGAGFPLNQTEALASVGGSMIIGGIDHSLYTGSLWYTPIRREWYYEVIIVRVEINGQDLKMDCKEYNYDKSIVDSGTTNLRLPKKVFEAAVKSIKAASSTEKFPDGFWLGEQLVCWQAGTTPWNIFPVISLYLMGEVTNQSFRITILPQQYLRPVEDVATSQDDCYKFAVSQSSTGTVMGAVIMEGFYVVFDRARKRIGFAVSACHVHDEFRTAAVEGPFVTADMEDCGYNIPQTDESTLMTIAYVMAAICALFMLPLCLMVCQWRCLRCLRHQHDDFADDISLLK

IC50, Abeta x-40 in mouse cortical neurons	maximal % inhibition of Abeta x-40	Binder
17.6 nM	45%	B8
42.4 nM	84%	B5
25.6 nM	74%	B6

Biological target: T5, BACE1 in primary mouse cortical neurons
Experiment: cell-based or functional assay
Remark: another data set of the same source

IC50, Abeta x-40 in mouse cortical neurons	maximal % inhibition of Abeta x-40	Binder
6.26 nM	57%	B12
22.6 nM	70%	B13
3.6 nM	67%	B14
27.3 nM	71%	B15
5.42 nM	67%	B16
–	73%	B17
0.91 nM	69%	B18
